Drawing on ChEMBL document CHEMBL1132371, “5-deazafolate analogues with a rotationally restricted glutamate or ornithine side chain: synthesis and binding interaction with folylpolyglutamate synthetase” (J Med Chem, 1999), this text covers Ki and Km for three molecules.

The target of series [1] is T1, Folylpolyglutamate synthase, mitochondrial (Homo sapiens, UniProt Q05932).
T1 sequence (Q05932 whole entry): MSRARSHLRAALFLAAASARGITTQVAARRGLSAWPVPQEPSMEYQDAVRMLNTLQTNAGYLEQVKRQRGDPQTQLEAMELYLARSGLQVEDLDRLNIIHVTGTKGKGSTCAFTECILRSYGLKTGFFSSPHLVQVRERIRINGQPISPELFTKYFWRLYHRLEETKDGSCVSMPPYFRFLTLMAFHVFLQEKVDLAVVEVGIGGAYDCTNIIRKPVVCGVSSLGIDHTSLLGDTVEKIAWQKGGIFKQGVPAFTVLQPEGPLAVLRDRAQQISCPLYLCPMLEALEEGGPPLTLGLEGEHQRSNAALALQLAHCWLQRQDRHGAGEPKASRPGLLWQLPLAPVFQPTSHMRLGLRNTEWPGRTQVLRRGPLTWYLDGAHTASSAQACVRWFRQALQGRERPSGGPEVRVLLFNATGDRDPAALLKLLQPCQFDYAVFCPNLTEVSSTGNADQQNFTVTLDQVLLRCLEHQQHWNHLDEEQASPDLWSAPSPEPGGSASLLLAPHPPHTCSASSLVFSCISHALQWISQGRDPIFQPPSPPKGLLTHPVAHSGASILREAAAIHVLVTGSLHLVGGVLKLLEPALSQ
As to the kind of experiment: Binding affinity as Competitive substrate in the presence of […] aminopterin towards recombinant Human Folyl-polyglutamate synthase (FPGS).

Compound in series [2]: Nc1nc(O)c2c(n1)NCC(CNc1ccc3c(c1)CN([C@@H](CCC(=O)O)C(=O)O)C3=O)C2
Description: (§1) Binding affinity as Competitive substrate in the presence of 10 uM tetrahydrofolate towards recombinant Human Folyl-polyglutamate synthase (FPGS).

Compound in series [3]: Nc1nc(O)c2c(n1)NCC(CNc1ccc(C(=O)NC(CCC(=O)O)C(=O)O)cc1)C2
The series is described as §1.

Compound in series [4]: Nc1nc(O)c2cc(CNc3ccc4c(c3)CN([C@@H](CCC(=O)O)C(=O)O)C4=O)cnc2n1
The description is as §1.

For `NCCC[C@@H](C(=O)O)N1Cc2cc(NCc3cnc4nc(N)[nH]c(=O)c4c3)ccc2C1=O`, the inhibition constant (Ki) in series [1] was found to be 110 µM.

In the case of `NCCC[C@@H](C(=O)O)N1Cc2cc(NCC3CNc4nc(N)nc(O)c4C3)ccc2C1=O` (stereo not given in full), the Ki in series [1] amounted to 0.2 µM.

B1: Folylpolyglutamate synthase, mitochondrial (Homo sapiens), Q05932 (protein)
chain: MSRARSHLRAALFLAAASARGITTQVAARRGLSAWPVPQEPSMEYQDAVRMLNTLQTNAGYLEQVKRQRGDPQTQLEAMELYLARSGLQVEDLDRLNIIHVTGTKGKGSTCAFTECILRSYGLKTGFFSSPHLVQVRERIRINGQPISPELFTKYFWRLYHRLEETKDGSCVSMPPYFRFLTLMAFHVFLQEKVDLAVVEVGIGGAYDCTNIIRKPVVCGVSSLGIDHTSLLGDTVEKIAWQKGGIFKQGVPAFTVLQPEGPLAVLRDRAQQISCPLYLCPMLEALEEGGPPLTLGLEGEHQRSNAALALQLAHCWLQRQDRHGAGEPKASRPGLLWQLPLAPVFQPTSHMRLGLRNTEWPGRTQVLRRGPLTWYLDGAHTASSAQACVRWFRQALQGRERPSGGPEVRVLLFNATGDRDPAALLKLLQPCQFDYAVFCPNLTEVSSTGNADQQNFTVTLDQVLLRCLEHQQHWNHLDEEQASPDLWSAPSPEPGGSASLLLAPHPPHTCSASSLVFSCISHALQWISQGRDPIFQPPSPPKGLLTHPVAHSGASILREAAAIHVLVTGSLHLVGGVLKLLEPALSQ
Consider B1, for which the results for the Km in series [2], in series [3] and in series [4] were 0.018 µM, 0.26 µM and 2.3 µM, respectively.

As usually defined, the Ki is a dissociation constant, usually derived from enzyme kinetics or from competition with a known ligand. By Km is commonly meant the concentration of substrate that gives half-maximal velocity.
